Results on 16 molecules are retold here after patent US20200048332A1 (BIOVERATIV USA, published 2020).

In assay [1] the target is T1, activated C1s (human, UniProt P09871 16-688).
T1 sequence: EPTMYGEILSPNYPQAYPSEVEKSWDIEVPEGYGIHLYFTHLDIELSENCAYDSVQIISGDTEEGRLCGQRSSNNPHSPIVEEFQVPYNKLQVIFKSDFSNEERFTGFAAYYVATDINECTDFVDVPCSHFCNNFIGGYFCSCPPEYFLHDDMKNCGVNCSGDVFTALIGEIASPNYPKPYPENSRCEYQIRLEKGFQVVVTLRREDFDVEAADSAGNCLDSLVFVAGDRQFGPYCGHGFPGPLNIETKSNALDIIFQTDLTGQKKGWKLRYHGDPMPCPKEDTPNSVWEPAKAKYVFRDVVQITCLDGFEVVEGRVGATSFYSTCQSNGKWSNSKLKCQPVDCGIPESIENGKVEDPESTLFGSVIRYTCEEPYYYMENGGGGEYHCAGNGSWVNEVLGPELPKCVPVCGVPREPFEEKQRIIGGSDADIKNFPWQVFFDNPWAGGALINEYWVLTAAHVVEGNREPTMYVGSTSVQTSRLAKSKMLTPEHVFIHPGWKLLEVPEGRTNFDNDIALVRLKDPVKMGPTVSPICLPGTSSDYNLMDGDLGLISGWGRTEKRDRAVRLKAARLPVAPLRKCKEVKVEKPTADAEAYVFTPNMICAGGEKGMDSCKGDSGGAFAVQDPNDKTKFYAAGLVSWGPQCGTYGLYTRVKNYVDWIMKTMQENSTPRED
Description: cell-based or functional assay.

The target in assay [2] is T1, activated C1s. Kind of assay: method not stated; dissociation constant for active C1s.

B1: murine anti-activated C1s antibody (antibody, V domains shown)
VH: EVQLQQSGAELVRPGASVKLSCTASGFNIKDDYIHWVKQRPEQGLEWIGRIDPADGHTKYAPKFQVKATITADTSSNTAYLQLSSLTSEDTAVYYCARYGYGREVFDYWGQGTTLTVSS
VL: DIVLTQSPASLAVSLGQRATISCKASQSVDYDGDSYMNWYQQKTGQPPKILIYDASNLESGIPARFSGSGSGTDFTLNIHPVEEEDAAIYYCQQSNEDPWTFGGGTKLEIK
With B1, in the assay with activated C1s [1], the “IC50 of classical complement pathway inhibition ('Classical Pathway Inhibition', IC50 (M))” value turned out to be 1.06e-09 M.

B2: humanized VH3/Vk2 (antibody, V domains shown)
VH: QVQLVQSGAEVKKPGASVKLSCTASGFNIKDDYIHWVKQAPGQGLEWIGRIDPADGHTKYAPKFQVKVTITADTSTSTAYLELSSLRSEDTAVYYCARYGYGREVFDYWGQGTTVTVSS
VL: DIVLTQSPDSLAVSLGERATISCKASQSVDYDGDSYMNWYQQKPGQPPKILIYDASNLESGIPARFSGSGSGTDFTLTISSLEPEDFAIYYCQQSNEDPWTFGGGTKVEIK
Take B2: the “IC50 of classical complement pathway inhibition ('Classical Pathway Inhibition', IC50 (M))” value with activated C1s [1] amounted to 1.26e-09 M.

B3: humanized VH5/Vk5 (antibody, V domains shown)
VH: QVQLVQSGAEVKKPGASVKVSCAASGFNIKDDYIHWVRQAPGQGLEWIGRIDPADGHTKYAPKFQVKVTITADTSTSTAYMELSSLRSEDTAVYYCARYGYGREVFDYWGQGTTVTVSS
VL: DIVLTQSPDSLAVSLGERATISCKASQSVDYDGDSYMNWYQQKPGQPPKLLIYDASNLESGIPARFSGSGSGTDFTLTISSLEPEDFAVYYCQQSNEDPWTFGGGTKVEIK
As to B3, the “IC50 of classical complement pathway inhibition ('Classical Pathway Inhibition', IC50 (M))” value with activated C1s [1] worked out at 1.33e-09 M.

B4: humanized VH2/Vk1 (antibody, V domains shown)
VH: EVQLVQSGAEVKKPGASVKLSCTASGFNIKDDYIHWVKQAPGQGLEWIGRIDPADGHTKYAPKFQVKATITADTSTNTAYLELSSLRSEDTAVYYCARYGYGREVFDYWGQGTTVTVSS
VL: DIVLTQSPDSLAVSLGERATISCKASQSVDYDGDSYMNWYQQKTGQPPKILIYDASNLESGIPARFSGSGSGTDFTLTISSLEEEDFAIYYCQQSNEDPWTFGGGTKVEIK
Regarding B4, in the assay with activated C1s [1], the “IC50 of classical complement pathway inhibition ('Classical Pathway Inhibition', IC50 (M))” value came to 1.23e-09 M.

B5: humanized VH1/Vk1 (antibody, V domains shown)
VH: EVQLVQSGAELKKPGASVKLSCTASGFNIKDDYIHWVKQAPGQGLEWIGRIDPADGHTKYAPKFQVKATITADTSTNTAYLQLSSLTSEDTAVYYCARYGYGREVFDYWGQGTTVTVSS
VL: DIVLTQSPDSLAVSLGERATISCKASQSVDYDGDSYMNWYQQKTGQPPKILIYDASNLESGIPARFSGSGSGTDFTLTISSLEEEDFAIYYCQQSNEDPWTFGGGTKVEIK
As for B5, the “IC50 of classical complement pathway inhibition ('Classical Pathway Inhibition', IC50 (M))” value with activated C1s [1] stood at 1.2e-09 M.

B6: humanized VH3/Vk5 (antibody, V domains shown)
VH: QVQLVQSGAEVKKPGASVKLSCTASGFNIKDDYIHWVKQAPGQGLEWIGRIDPADGHTKYAPKFQVKVTITADTSTSTAYLELSSLRSEDTAVYYCARYGYGREVFDYWGQGTTVTVSS
VL: DIVLTQSPDSLAVSLGERATISCKASQSVDYDGDSYMNWYQQKPGQPPKLLIYDASNLESGIPARFSGSGSGTDFTLTISSLEPEDFAVYYCQQSNEDPWTFGGGTKVEIK
On to B6, for which the “IC50 of classical complement pathway inhibition ('Classical Pathway Inhibition', IC50 (M))” value with activated C1s [1] was found to be 1.38e-09 M.

B7: humanized VH2/Vk5 (antibody, V domains shown)
VH: EVQLVQSGAEVKKPGASVKLSCTASGFNIKDDYIHWVKQAPGQGLEWIGRIDPADGHTKYAPKFQVKATITADTSTNTAYLELSSLRSEDTAVYYCARYGYGREVFDYWGQGTTVTVSS
VL: DIVLTQSPDSLAVSLGERATISCKASQSVDYDGDSYMNWYQQKPGQPPKLLIYDASNLESGIPARFSGSGSGTDFTLTISSLEPEDFAVYYCQQSNEDPWTFGGGTKVEIK
As for B7, the “IC50 of classical complement pathway inhibition ('Classical Pathway Inhibition', IC50 (M))” value in the assay with activated C1s [1] was 1.27e-09 M.

B8: humanized VH5/Vk2 (antibody, V domains shown)
VH: QVQLVQSGAEVKKPGASVKVSCAASGFNIKDDYIHWVRQAPGQGLEWIGRIDPADGHTKYAPKFQVKVTITADTSTSTAYMELSSLRSEDTAVYYCARYGYGREVFDYWGQGTTVTVSS
VL: DIVLTQSPDSLAVSLGERATISCKASQSVDYDGDSYMNWYQQKPGQPPKILIYDASNLESGIPARFSGSGSGTDFTLTISSLEPEDFAIYYCQQSNEDPWTFGGGTKVEIK
Regarding B8, the “IC50 of classical complement pathway inhibition ('Classical Pathway Inhibition', IC50 (M))” value with activated C1s [1] worked out at 1.33e-09 M.

B9: humanized VH1/Vk5 (antibody, V domains shown)
VH: EVQLVQSGAELKKPGASVKLSCTASGFNIKDDYIHWVKQAPGQGLEWIGRIDPADGHTKYAPKFQVKATITADTSTNTAYLQLSSLTSEDTAVYYCARYGYGREVFDYWGQGTTVTVSS
VL: DIVLTQSPDSLAVSLGERATISCKASQSVDYDGDSYMNWYQQKPGQPPKLLIYDASNLESGIPARFSGSGSGTDFTLTISSLEPEDFAVYYCQQSNEDPWTFGGGTKVEIK
As for B9, the “IC50 of classical complement pathway inhibition ('Classical Pathway Inhibition', IC50 (M))” value with activated C1s [1] was found to be 1.26e-09 M.

B10: humanized VH4/Vk1 (antibody, V domains shown)
VH: QVQLVQSGAEVKKPGASVKVSCTASGFNIKDDYIHWVRQAPGQGLEWIGRIDPADGHTKYAPKFQVKVTITADTSTSTAYMELSSLRSEDTAVYYCARYGYGREVFDYWGQGTTVTVSS
VL: DIVLTQSPDSLAVSLGERATISCKASQSVDYDGDSYMNWYQQKTGQPPKILIYDASNLESGIPARFSGSGSGTDFTLTISSLEEEDFAIYYCQQSNEDPWTFGGGTKVEIK
Turning to B10, the “IC50 of classical complement pathway inhibition ('Classical Pathway Inhibition', IC50 (M))” value in the assay with activated C1s [1] is 1.35e-09 M.

B11: humanized VH3/Vk1 (antibody, V domains shown)
VH: QVQLVQSGAEVKKPGASVKLSCTASGFNIKDDYIHWVKQAPGQGLEWIGRIDPADGHTKYAPKFQVKVTITADTSTSTAYLELSSLRSEDTAVYYCARYGYGREVFDYWGQGTTVTVSS
VL: DIVLTQSPDSLAVSLGERATISCKASQSVDYDGDSYMNWYQQKTGQPPKILIYDASNLESGIPARFSGSGSGTDFTLTISSLEEEDFAIYYCQQSNEDPWTFGGGTKVEIK
As to B11, the “IC50 of classical complement pathway inhibition ('Classical Pathway Inhibition', IC50 (M))” value with activated C1s [1] is 1.27e-09 M.

B12: humanized VH4/Vk2 (antibody, V domains shown)
VH: QVQLVQSGAEVKKPGASVKVSCTASGFNIKDDYIHWVRQAPGQGLEWIGRIDPADGHTKYAPKFQVKVTITADTSTSTAYMELSSLRSEDTAVYYCARYGYGREVFDYWGQGTTVTVSS
VL: DIVLTQSPDSLAVSLGERATISCKASQSVDYDGDSYMNWYQQKPGQPPKILIYDASNLESGIPARFSGSGSGTDFTLTISSLEPEDFAIYYCQQSNEDPWTFGGGTKVEIK
In the case of B12, the “IC50 of classical complement pathway inhibition ('Classical Pathway Inhibition', IC50 (M))” value with activated C1s [1] was found to be 1.31e-09 M.

B13: humanized VH5/Vk1 (antibody, V domains shown)
VH: QVQLVQSGAEVKKPGASVKVSCAASGFNIKDDYIHWVRQAPGQGLEWIGRIDPADGHTKYAPKFQVKVTITADTSTSTAYMELSSLRSEDTAVYYCARYGYGREVFDYWGQGTTVTVSS
VL: DIVLTQSPDSLAVSLGERATISCKASQSVDYDGDSYMNWYQQKTGQPPKILIYDASNLESGIPARFSGSGSGTDFTLTISSLEEEDFAIYYCQQSNEDPWTFGGGTKVEIK
For B13, the “IC50 of classical complement pathway inhibition ('Classical Pathway Inhibition', IC50 (M))” value with activated C1s [1] came to 1.08e-09 M.

B14: humanized VH1/Vk2 (antibody, V domains shown)
VH: EVQLVQSGAELKKPGASVKLSCTASGFNIKDDYIHWVKQAPGQGLEWIGRIDPADGHTKYAPKFQVKATITADTSTNTAYLQLSSLTSEDTAVYYCARYGYGREVFDYWGQGTTVTVSS
VL: DIVLTQSPDSLAVSLGERATISCKASQSVDYDGDSYMNWYQQKPGQPPKILIYDASNLESGIPARFSGSGSGTDFTLTISSLEPEDFAIYYCQQSNEDPWTFGGGTKVEIK
For the molecule B14, in the assay with activated C1s [1], the “IC50 of classical complement pathway inhibition ('Classical Pathway Inhibition', IC50 (M))” value is 1.14e-09 M.

B15: humanized VH4/Vk5 (antibody, V domains shown)
VH: QVQLVQSGAEVKKPGASVKVSCTASGFNIKDDYIHWVRQAPGQGLEWIGRIDPADGHTKYAPKFQVKVTITADTSTSTAYMELSSLRSEDTAVYYCARYGYGREVFDYWGQGTTVTVSS
VL: DIVLTQSPDSLAVSLGERATISCKASQSVDYDGDSYMNWYQQKPGQPPKLLIYDASNLESGIPARFSGSGSGTDFTLTISSLEPEDFAVYYCQQSNEDPWTFGGGTKVEIK
Take B15: in the assay with activated C1s [1], the “IC50 of classical complement pathway inhibition ('Classical Pathway Inhibition', IC50 (M))” value worked out at 1.54e-09 M.

B16: VH3/VK2-Fc-sub4 (antibody, human IgG4 S228P, kappa, V domains shown)
VH: QVQLVQSGAEVKKPGASVKLSCTASGFNIKDDYIHWVKQAPGQGLEWIGRIDPADGHTKYAPKFQVKVTITADTSTSTAYLELSSLRSEDTAVYYCARYGYGREVFDYWGQGTTVTVSS
VL: DIVLTQSPDSLAVSLGERATISCKASQSVDYDGDSYMNWYQQKPGQPPKILIYDASNLESGIPARFSGSGSGTDFTLTISSLEPEDFAIYYCQQSNEDPWTFGGGTKVEIKR
notes: Humanized IgG4; also called TNT020; humanized anti-aC1s variant VH3/VK2-Fc-sub4
For the molecule B16, the Kd with activated C1s [2] amounted to 1.53 nM. In other words, the single-digit nanomolar range.

For orientation: Kd means the equilibrium constant for the complex coming apart. A lower Kd goes with tighter binding.
